{
  "source": "IntAct's records for PubMed 18617892",
  "parents": {"B1": {"name": "Nuclear factor NF-kappa-B p100 subunit (Homo sapiens), Q00653 (parent)", "chain": "MESCYNPGLDGIIEYDDFKLNSSIVEPKEPAPETADGPYLVIVEQPKQRGFRFRYGCEGPSHGGLPGASSEKGRKTYPTVKICNYEGPAKIEVDLVTHSDPPRAHAHSLVGKQCSELGICAVSVGPKDMTAQFNNLGVLHVTKKNMMGTMIQKLQRQRLRSRPQGLTEAEQRELEQEAKELKKVMDLSIVRLRFSAFLRASDGSFSLPLKPVISQPIHDSKSPGASNLKISRMDKTAGSVRGGDEVYLLCDKVQKDDIEVRFYEDDENGWQAFGDFSPTDVHKQYAIVFRTPPYHKMKIERPVTVFLQLKRKRGGDVSDSKQFTYYPLVEDKEEVQRKRRKALPTFSQPFGGGSHMGGGSGGAAGGYGGAGGGGSLGFFPSSLAYSPYQSGAGPMGCYPGGGGGAQMAATVPSRDSGEEAAEPSAPSRTPQCEPQAPEMLQRAREYNARLFGLAQRSARALLDYGVTADARALLAGQRHLLTAQDENGDTPLHLAIIHGQTSVIEQIVYVIHHAQDLGVVNLTNHLHQTPLHLAVITGQTSVVSFLLRVGADPALLDRHGDSAMHLALRAGAGAPELLRALLQSGAPAVPQLLHMPDFEGLYPVHLAVRARSPECLDLLVDSGAEVEATERQGGRTALHLATEMEELGLVTHLVTKLRANVNARTFAGNTPLHLAAGLGYPTLTRLLLKAGADIHAENEEPLCPLPSPPTSDSDSDSEGPEKDTRSSFRGHTPLDLTCSTKVKTLLLNAAQNTMEPPLTPPSPAGPGLSLGDTALQNLEQLLDGPEAQGSWAELAERLGLRSLVDTYRQTTSPSGSLLRSYELAGGDLAGLLEALSDMGLEEGVRLLRGPETRDKLPSTAEVKEDSAYGSQSVEQEAEKLGPPPEPPGGLCHGHPQPQVH"}},
  "key": {"fbw1a_human BTRC, Q9Y297": {"variants_of": "B1", "details": "with fbw1a_human BTRC"}, "ubc_human UBC, P0CG48": {"variants_of": "B1", "details": "with ubc_human UBC"}},
  "data": [
    {"variant": "K298R", "values": [
      {"measurement": "effect of a mutation on the interaction", "setting": "fbw1a_human BTRC, Q9Y297", "value": "decreasing interaction"},
      {"measurement": "effect of a mutation on the interaction", "setting": "ubc_human UBC, P0CG48", "value": "decreasing interaction"}
    ]},
    {"variant": "K90R", "values": [
      {"measurement": "effect of a mutation on the interaction", "setting": "fbw1a_human BTRC, Q9Y297", "value": "decreasing interaction"},
      {"measurement": "effect of a mutation on the interaction", "setting": "ubc_human UBC, P0CG48", "value": "decreasing interaction"}
    ]},
    {"variant": "K863R", "values": [
      {"measurement": "effect of a mutation on the interaction", "setting": "fbw1a_human BTRC, Q9Y297", "value": "decreasing interaction"},
      {"measurement": "effect of a mutation on the interaction", "setting": "ubc_human UBC, P0CG48", "value": "decreasing interaction"}
    ]},
    {"variant": "K689R", "values": [
      {"measurement": "effect of a mutation on the interaction", "setting": "fbw1a_human BTRC, Q9Y297", "value": "decreasing interaction"},
      {"measurement": "effect of a mutation on the interaction", "setting": "ubc_human UBC, P0CG48", "value": "decreasing interaction"}
    ]}
  ]
}
